This note sets out measurements from PMC11915586.

For assay [1], the target named is Hsp90 from Saccharomyces cerevisiae (Hsp82) with D61C, CpK at position 452 and a C-terminal coiled-coil motif, labelled with Atto 550 / Atto 647N and DNA oligonucleotide (Saccharomyces cerevisiae) (UniProt P02829). In words: optical tweezers (single-molecule force spectroscopy); dye-labeled Hsp90 dimer tethered at position 452 by 2.5 kbp DNA handles; constant velocity 500 nm s^-1; 2 mM AMP-PNP, incubated 30 min at 21°C; 26 traces.

The target is the same in assay [2]. In words: optical tweezers (single-molecule force spectroscopy); dye-labeled Hsp90 dimer tethered at position 452 of both monomers between two beads by 2.5 kbp DNA handles; constant velocity 500 nm s^-1; no AMP-PNP; 147 unfolding traces.
The target is the same in assay [3]. Nature of the assay: optical tweezers (single-molecule force spectroscopy); dye-labeled Hsp90 dimer tethered at position 452 of both monomers between two beads by 0.5 kbp DNA handles; constant velocity 500 nm s^-1; no nucleotide; 172 unfolding traces.

Regarding “Hsp90 from Saccharomyces cerevisiae (Hsp82) with D61C, CpK at position 452 and a C-terminal coiled-coil motif, labelled with Atto 550 / Atto 647N and DNA oligonucleotide (from UniProt P02829 1-709) (natural protein)”, the dissociation force, C-terminal dimer dissociation worked out at 10.7 pN in assay [1], 16.5 pN in assay [2] and 16.8 pN in assay [3]. Also, in assay [1], the force of N-terminal dimer opening was found to be 8.8 pN.
